Experimental data taken from patent WO2005044853A2 (dated 2005).

T1: murine VEGF-D (mouse, UniProt P97946 98-206, limits assumed)
T1 construct: also called mVEGF-D
T1 sequence (looked up): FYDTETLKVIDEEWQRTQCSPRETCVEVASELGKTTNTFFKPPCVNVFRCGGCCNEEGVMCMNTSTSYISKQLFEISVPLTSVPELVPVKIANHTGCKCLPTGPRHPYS

T2: mouse placenta growth factor (PlGF-2) (mouse, UniProt P49764 24-158, limits assumed)
T2 construct: also called murine P1GF-2
T2 sequence (looked up): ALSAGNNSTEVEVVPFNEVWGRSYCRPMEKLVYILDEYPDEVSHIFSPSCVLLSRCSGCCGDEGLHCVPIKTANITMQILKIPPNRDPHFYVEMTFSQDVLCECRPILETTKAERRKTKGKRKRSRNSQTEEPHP

T3: human placenta growth factor (PlGF-2) (human, UniProt P49763-3 19-170, limits assumed)
T3 construct: also called human P1GF-2
T3 sequence (looked up): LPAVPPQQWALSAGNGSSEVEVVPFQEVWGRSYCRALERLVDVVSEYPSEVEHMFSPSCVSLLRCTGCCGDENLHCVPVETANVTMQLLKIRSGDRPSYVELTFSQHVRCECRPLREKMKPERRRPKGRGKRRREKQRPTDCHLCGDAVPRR

T4: human VEGF-B (human, UniProt P49765-2 22-188, limits assumed)
T4 sequence (looked up): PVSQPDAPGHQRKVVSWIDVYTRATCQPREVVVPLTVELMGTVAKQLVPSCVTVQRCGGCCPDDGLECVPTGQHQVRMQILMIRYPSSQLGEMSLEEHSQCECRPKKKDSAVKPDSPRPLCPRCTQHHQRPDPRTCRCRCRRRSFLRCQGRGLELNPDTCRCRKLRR

B1: G6 Fab (Fab, V domains shown)
VH: EVQLVESGGGLVQPGGSLRLSCAASGFTISDYWIHWVRQAPGKGLEWVAGITPAGGYTYYADSVKGRFTISADTSKNTAYLQMNSLRAEDTAVYYCARFVFFLPYAMDYWGQGTLVTVSS
VL: DIQMTQSPSSLSASVGDRVTITCRASQDVSTAVAWYQQKPGKAPKLLIYSASFLYSGVPSRFSGSGSGTDFTLTISSLQPEDFATYYCQQSYTTPPTFGQGTKVEIKR
notes: also called G6 antibody; G6 clone

Assays:
[1] = biological target: murine VEGF (mouse) (UniProt Q00731); assay: 25C; given as unpublished results
Chain of murine VEGF (mouse) (Q00731 other isoform, or with tags, fused parts or gaps limits assumed): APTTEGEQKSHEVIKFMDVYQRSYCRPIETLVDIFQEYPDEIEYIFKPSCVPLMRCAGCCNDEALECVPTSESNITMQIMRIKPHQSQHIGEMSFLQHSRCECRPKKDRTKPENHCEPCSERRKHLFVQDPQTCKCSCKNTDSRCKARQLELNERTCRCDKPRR

[2] = biological target: murine VEGF (mouse) (UniProt Q00731); assay: BIAcore or solution binding ELISA, Fab, measured as control in the same assays
[3] = biological target: T1, murine VEGF-D; assay: direct ELISA on homolog-coated wells (2ug/ml), increasing G6 Fab
[4] = biological target: T2, mouse placenta growth factor (PlGF-2); assay: as above
[5] = biological target: T3, human placenta growth factor (PlGF-2); assay: as above
[6] = biological target: T4, human VEGF-B; assay: as above

| Molecule | Kd [1] | affinity [2] | binding result [3] | binding result [4] | binding result [5] | binding result [6] |
| --- | --- | --- | --- | --- | --- | --- |
| Y0317 Fab | 300 nM | 350 nM |  |  |  |  |
| B1 |  |  | no binding | no binding | no binding | no binding |
